From the DeepSol protein solubility set

Assay: soluble on expression in E. coli; label from the status in PepcDB or PDB records

| Sequence | soluble on expression in E. coli |
| --- | --- |
| MREINMILYIHIPFCENKCGYCAFNSYENKHGLKEEYTQALCLDLKHALSQTDEPIESVFIGGGTPNTLSVKAFERIFESIYQHASLSLDCEITTEANPELITKAWCQGLKGLGINRLSLGVQSFREDKLLFLERQHSKNIAPAIETILKSGIENISIDLIYNTPLDNENSLKEELKLAKELPINHLSAYALSVEKNTNLEKNAKKPSCAHFDNVVREILEGFSFKQYEVSNYARNYQVKHNLAYWGAKDYLGCGAGAVGCVANERFFAKKLIENYIKDPLQRQVETLNKQDKRLEKLFLGLRCVLGVELSFLDENKVKFLIEENKAFIKNNRLIASDFFMADEMALWLLLEHHHHHH | not soluble |
| MRFAPFTRQRHHNREQIKQHPEWFPAPLKASDRRWQALAENNHFLSSDHLHNITEVAIHRLEQQLGKPYVWGGTRPDQGFDCSGLVFYAYNKILEAKLPRTANEMYHYRRATIVANNDLRRGDLLFFHIHSREIADHMGGYLGDGQFIESLRTGETIRVSRLAEPFWQDHFLGARRILTEEMIL | not soluble |
| MRFAVLGSGSQGNGTLIVSADTCVLVDCGFSLRETERRLLRLGVDPAQLSAILVTHEHADHVHGVGLLSRRYNLPVYLSQGTLRGMRKPVEVAGFVRGGESLQIGALRIDVIAVAHDAQEPTQFVFSDGQRRFGLLTDLGSYCAGVLDGYRGLDALMIEANHCRDRLARGYYPYFLKQRVGGDLGHLNNHQAASLVAELGWQDLQHLVLAHLSSKNNLPQLARQCFVDTLGCDPDWLQLADQDSGLDWRHIALEHHHHHH | not soluble |
| MRFRPFTEEDLDRLNRLAGKRPVSLGALRFFARTGHSFLAEEGEEPMGFALAQAVWQGEATTVLVTRMEGRSVEALRGLLRAVVKSAYDAGVYEVALHLDPERKELEEALKAEGFALGPLVLAVRVLGSRGARGETRGVLE | soluble |
| MRFVDFFNALLEGKVIGQKCGDCGSYTCPPKATCDNCGSRNLEAVELSGKGVIRTFTTTYVAPSGYTNEAPYTVAMVELDEGPWIVGRIDLPNEEIEKFGQDLIGARVSVYGKEFPTEPFYPDKKRRVVPMFRLEGLEHHHHHH | soluble |
| MRFYNREKELARLMEIATLSEESAHLAVITGRRRVGKTELIRKFAEGRDDFLYFFVSKKKPRVLLDEFRDLLAARVPLLASASFGSFDDFFRALFEITKERPLFIVFDEFQNFQQVDPAVFSTLQDLWDRNKGTIKGTIVCIGSVQTLMREIFEGAKEPLFGRVTARLYVEPLIPDVVATILADHQVDAVRHLPFFFTLFGGIPKYYFLLDRYRLFGKTPAEIIRKFFCETDALLQNEGKDLLVEEFGKNYHLYFSILQVIAGGENQMARIADKSGINVNSISKYLDELTSYYQVIERRLPVTATRQEQKTGRYYLKDPLLRFWFRYIYRNQSLIEIGDEEGLLGKIQADLSTFMGWSFEELIRAMLLKRNDGTVVPFGFTRIGGFWTKRGDVEIDIVALNEEDGAIFFGECKLSGSRFSVADARRLKEKAKAVPWRTGDRREHFVLFCMDDLESDAEQALAAEGVGVVRLRQLLSVPLEHHHHHH | not soluble |
| MRGHLIDGDGRCIHYHGPFDVVGNKCATCNEWWACHRCHEEIANHPFGKMLIDAPSSLQCGHCGELMAYGVQKCPRCGHNFNPGCSLHTPLYYEMPSLEHHHHHH | not soluble |
| MRGKNTGKQRRSIKKQQTVAELKHLFDAPGRGSVMPRQVLWGDLCLTAFPHELNSESTAPMHRYILLSIIRIPLPLTLESQRSLTLVKRCFRRSSVLSSTLYSRLGSTTF | not soluble |
| MRGSHHHHHHGSACELGTMPHIDNDVKLDFKDVLLRPKRSTLKSRSEVDLTRSFSFRNSKQTYSGVPIIAANMDTVGTFEMAKVLCKFSLFTAVHKHYSLVQWQEFAGQNPDCLEHLAASSGTGSSDFEQLEQILEAIPQVKYICLDVANGYSEHFVEFVKDVRKRFPQHTIMAGNVVTGEMVEELILSGADIIKVGIGPGSVCTTRKKTGVGYPQLSAVMECADAAHGLKGHIISDGGCSCPGDVAKAFGAGADFVMLGGMLAGHSESGGELIERDGKKYKLFYGMSSEMAMKKYAGGVAEYRASEGKTVEVPFKGDVEHTIRDILGGIRSTCTYVGAAKLKELSRRTTFIRVTQQVNPIFSEAC | soluble |
| MRGSHHHHHHGSDLGKKLLEAARAGQDDEVRILMANGADVNAEDTYGDTPLHLAARVGHLEIVEVLLKNGADVNALDFSGSTPLHLAAKRGHLEIVEVLLKYGADVNADDTIGSTPLHLAADTGHLEIVEVLLKYGADVNAQDKFGKTAFDISIDNGNEDLAEILQ | soluble |
| MRGSHHHHHHGSMQYALLFPGQGSQCIGMGKSFYEGHTLAKELFERASNALKVDMKKTLFEENELLKESAYTQPAIYLVSYIAYQLLNKQANGGLKPVFALGHSLGEVSAVSLSGALDFEKALKLTHQRGKMMQEACANKDASMMVVLGVSEESLLSLCQRTKNVWCANFNGGMQVVLAGVKDDLKALEPTLKEMGAKRVVFLEMSVASHCPFLEPMIFKFQELLEKSLKDKFHFEIISNATNEAYHNKAKAVELLSLQLTQPVRYQDCVKSNNDRVDIFFELGCGSVLKGLNKRLSNKPTISVGDNKGLDEAIEFLEEYV | soluble |
| MRGSHHHHHHMSDEEHTFETADAGSSATYPMQCSALRKNGFVVIKSRPCKIVDMSTSKTGKHGHAKVHLVAIDIFTGKKLEDLSPSTHNMEVPVVKRNEYQLLDIDDGFLSLMNMDGDTKDDVKAPEGELGDSLQTAFDEGKDLMVTIISAMGEEAAISFKEAARTD | soluble |
| MRGSHHHHHHTDPALRAALKATIYKATVNVADLDRNQFLDASLTLARHPSETQERMMLRLLAWLKYADERLQFTRGLCADDEPEAWLRNDHLGIDLWIELGLPDERRIKKACTQAAEVALFTYNSRAAQIWWQQNQSKCVQFANLSVWYLDDEQLAKVSAFADRTMTLQATIQDGVIWLSDDKNNLEVNLTAWQQPSGLCGR | soluble |
| MRGSHHHHHHTDPALRAARLFTLSESKYYLMALDAGTGSIRAVIFDLEGNQIAVGQAEWRHLAVPDVPGSMEFDLNKNWQLACECMRQALHNAGIAPEYIAAVSACSMREGIVLYNNEGAPIWACANVDARAAREVSELKELHNNTFENEVYRATGQTLALSAIPRLLWLAHHRSDIYRQASTITMISDWLAYMLSGELAVDPSNAGTTGLLDLTTRDWKPALLDMAGLRADILSPVKETGTLLGVVSSQAAELCGLKAGTPVVVGGGDVQLGCLGLGVVRPAQTAVLGGTFWQQVVNLAAPVTDPEMNVRVNPHVIPGMVQAESISFFTGLTMRWFRDAFCAEEKLIAERLGIDTYTLLEEMASRVPPGSWGVMPIFSDRMRFKTWYHAAPSFINLSIDPDKCNKATLFRALEENAAIVSACNLQQIADFSNIHPSSLVFAGGGSKGKLWSQILADVSGLPVNIPVVKEATALGCAIAAGVGAGIFSSMAETGERLVRWERTHTPDPEKHELYQDSRDKWQAVYQDQLGLVDHGLTTSLWKAPGLGLCGR | soluble |
| MRGSHHHHHHTDPALRALVSSNVTMQFGSKPLFENISVKFGGGNRYGLIGANGSGKSTFMKILGGDLEPTLGNVSLDPNERIGKLRQDQFAFEEFTVLDTVIMGHKELWEVKQERDRIYALPEMSEEDGYKVADLEVKYGEMDGYSAEARAGELLLGVGIPVEQHYGPMSEVAPGWKLRVLLAQALFADPDILLLDEPTNNLDIDTIRWLEQVLNERDSTMIIISHDRHFLNMVCTHMADLDYGELRVYPGNYDEYMTAATQARERLLADNAKKKAQIAELQSFVSRFSANASKSRQATSRARQIDKIKLEEVKASSRQNPFIRFEQDKKLFRNALEVEGLTKGFDNGPLFKNLNLLLEVGEKLAVLGTNGVGKSTLLKTLVGDLQPDSGTVKWSENARIGYYAQDHEYEFENDLTVFEWMSQWKQEGDDEQAVRSILGRLLFSQDDIKKPAKVLSGGEKGRMLFGKLMMQKPNILIMDEPTNHLDMESIESLNMALELYQGTLIFVSHDREFVSSLATRILEITPERVIDFSGNYEDYLRSKGIEGLCGR | soluble |
| MRHLRFENLTEEQLKRLAKILTENLKGGEVVILSGNLGAGKTTFVKGMIRAIGLDEKMVKSPTFTLMNVYPGLKTIYHLDLYRLQDTDFLSLDVEDILEDEDGIMVVEWGDLFDGFWPEDSIKVKIEIADESHRNVEILIPEEVNFLVEKIERYRKELQNT | soluble |
| MRIDTVNVLLEALPYIKEFYGKTFVIKFGGSAMKQENAKKAFIQDIILLKYTGIKPIIVHGGGPAISQMMKDLGIEPVFKNGHRVTDEKTMEIVEMVLVGKINKEIVMNLNLHGGRAVGICGKDSKLIVAEKETKHGDIGYVGKVKKVNPEILHALIENDYIPVIAPVGIGEDGHSYNINADTAAAEIAKSLMAEKLILLTDVDGVLKDGKLISTLTPDEAEELIRDGTVTGGMIPKVECAVSAVRGGVGAVHIINGGLEHAILLEIFSRKGIGTMIKELEG | soluble |
| MRIEDKLYLNRYRTDEENPHLKIKDESICAEKCSDRPCVSCCPADVYEWTESGMEVKFEGCLECGTCRIVCPFGNIEWNYPRGNYGVLYKFG | soluble |
| MRIGIVCPYSFDAPGGVQAHVLDLAEKFISQGHHVEVLGPASESTQLPDFVTRGGASLPIPYNGSVARLSFGPSTFIRARDFINRGQFDVLHIHEPNSPSFSMAALKVARGPIVATYHASSNRSLALKFALPFLRGQLEKIRGGIAVSEMARRWQVEMLGGDPILIPNGVETSQFELDKKPLWSGRIPEIVFLGRLDEHRKGLDILLRAVDRLDHEVRVTVIGGGTHPPAPRIDFVGRVSDEEKAEILGRADIYVAPNRGGESFGIVLVEAMAAGCVVVASDLEAFSAVCDAQSSQPSGILFRNGDADDLASTLRNVIENPKFGQELVTSGTQRAKEFDWDNVSKEIMRVYETVCDGTTVTAA | not soluble |
| MRILNQDNNIAVRNVLLMLTMEEAAELKDDLERLLSKKALNDHSHINDLEYEHELTISLYDENNIEEFDERIKKLIIQDE | not soluble |
| MRILVTNDDGIYSPGLWALAEAASQFGEVFVAAPDTEQSAAGHAITIAHPVRAYPHPSPLHAPHFPAYRVRGTPADCVALGLHLFGPVDLVLSGVNLGSNLGHEIWHSGTVAAAKQGYLFGLSAAAFSVPLNGEVPDFAGLRPWLLRTLETLLRLERPFLVNVNLPLRPKGFLWTRQSVRAYEGVVIPGEDPMGRPFYWFAPRPLKEAEEGTDRWAVAQGFVSATPLRLDLTDETRLQPTLAHD | soluble |
| MRISLPVAEAAAAGGRAGKHGKAITFLTPDDTAVYFDLKQVKIVDGHLPTHVFSLNCLRRYARMDSRNMMLHGANLDNSHLDVKVNFLFENFKHFSVFLKLTKSSK | soluble |
| MRKEAIYHRPADNFAYAYDSETLHLRLRTKKDDIDRVELLHGDPYDWQNGAWQFQMMPMRKTGSDELFDYWFAEVKPPYRRLRYGFVLYSGEEKLVYTEKGFYFEVPTDDTAYYFCFPFLHRVDLFEAPDWVKDTVWYQIFPERFANGNPSISPEGSRPWGSEDPTPTSFFGGDLQGIIDHLDYLVDLGITGIYLTPIFRSPSNHKYDTADYFEVDPHFGDKETLKTLIDRCHEKGIRVMLDAVFNHCGYEFAPFQDVWKNGESSKYKDWFHIHEFPLQTEPRPNYDTFAFVPQMPKLNTANPEVKRYLLDVATYWIREFDIDGWRLDVANEIDHEFWREFRQEVKALKPDVYILGQIWHDAMPWLRGDQFDAVMNYPFTDGVLRFFAKEEISARQFANQMMHVLHSYPNNVNEAAFNLLGSHDTSRILTVCGGDIRKVKLLFLFQLTFTGSPCIYYGDEIGMTGGNDPECRKCMVWDPMQQNKELHQHVKQLIALRKQYRSLRRGEISFLHADDEMNYLIYKKTDGDETVLVIINRSDQKADIPIPLDARGTWLVNLLTGERFAAEAETLCTSLPPYGFVLYAIEHW | soluble |
